Data published in patent US12723105 (BEIJING STARMAB BIOMED TECHNOLOGY, dated 2026).
Positions count from the first letter of the chain named.

T1: human LAG3 (human, UniProt P18627 29-450, limits assumed)
T1 construct: also called hLAG3
T1 sequence: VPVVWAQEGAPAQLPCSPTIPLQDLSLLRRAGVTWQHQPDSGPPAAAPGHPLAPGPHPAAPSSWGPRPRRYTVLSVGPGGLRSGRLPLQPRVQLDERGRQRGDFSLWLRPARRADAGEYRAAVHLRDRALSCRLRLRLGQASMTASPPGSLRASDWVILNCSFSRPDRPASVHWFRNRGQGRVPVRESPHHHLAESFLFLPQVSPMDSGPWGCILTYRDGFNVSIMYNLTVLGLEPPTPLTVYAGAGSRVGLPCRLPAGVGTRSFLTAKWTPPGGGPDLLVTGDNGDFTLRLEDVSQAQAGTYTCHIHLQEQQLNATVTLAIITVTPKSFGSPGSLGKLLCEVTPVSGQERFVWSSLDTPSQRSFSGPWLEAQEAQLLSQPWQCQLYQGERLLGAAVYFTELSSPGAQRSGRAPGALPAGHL

B1: HS5 (VHH)
VHH: EVQLVESGGGLVQAGGSLRLSCAASGRTFTTHAMGWFRQAPGKEREFVATINWGGRTTYYADSVKGRFIISRDTGANTVYLQMNSLKPEDTAVYYCASNLDTYNVRAGTTNSWGQGTQVTVSS
notes: not shown: C-terminal His-tag
B2: 33-1 (VHH)
VHH: QVQLVESGGGLVQTGGSLRLSCAASGGTFTNYAMGWFREAPGKEREFVAGINNNGDTLYNTNSVKGRFTISRDNAKNTVYLHMNSLKLEDTAVYYCAANLKGASWYSANYDYWGQGTQVTVSS
notes: not shown: C-terminal His-tag
B3: 33-2 (VHH)
VHH: QVQLVESGGGLVQAGGSLRLSCTASANILRTAPMAWYRQAPGKQREFVALITADGTTDYQESVKGRFTTSRDNAKNTVYLQMNSLQSEDTARYFCKVYSYWGQGTQVTVSS
notes: not shown: C-terminal His-tag
B4: 33-8 (VHH)
VHH: EVQLMESGGGLVQAGGSLRLSCAASGRTVSTYVMGWFRQAPGKEREFVAEINRIGDTLYNRTSVKGRFTISRDNAKNTVYLQMNSLEPEDTAVYSCAARVIGTSTYNYWGQGTQVTVSS
notes: not shown: C-terminal His-tag
B5: 33-14 (VHH)
VHH: QVQLVESGGGLVQAGDSLKLSCAASGRTSLILAMAWWRQAPGKEREFAGRIWWNNDMTRYSDSVKGRFTISKDNTKNMVYLRMDNLGPEDTAVYYCEADLIGGSRGWGQGTQVTVSS
notes: not shown: C-terminal His-tag
B6: 33-4 (VHH)
VHH: QVQLVESGGGSVQPGGSLRLSCEASGSIFSIAHMGWYRQAPGKQRELVAVISSGGRTNYVDSVKGRFTISRDNAKNTVYLQMNSLKAEDTAVYFCNVAVVGGPRFDYWGQGTQVTVSS
notes: not shown: C-terminal His-tag
B7: 33-13 (VHH)
VHH: QVQLVESGGGLVQAGGSLRLSCAASGSISSINSMNWYRQAPGKQREKVAGINSSGDTNYVDSVKGRFTISRDNAERTTYLQMNNLKPEDTGLYYCNADPRPWPNDVAFGSWGQGTRVTVSS
notes: not shown: C-terminal His-tag
B8: LG6 (VHH)
VHH: EVQLVESGGGLVQAGGSLRLSCAVSGSIFSISTMGWYRQAPGKQRELVASITARGSADYADSVKGRFTISRDNAKNTVYLQMSSLKPEDTAVYYCNTDTRSTLYHYSWGQGTQVTVSS
notes: not shown: C-terminal His-tag
B9: LG-D8 (VHH)
VHH: QVQLVESGGGLVQPGGSLRLSCAASGFTFGKYAMSWVRQVPDKGLEWVSSISSSGRDTSYADSAKGRFTIFRNNAANTVYLQMDNLKLEDTGVYYCVKCLEVWATREYDGWGQGTQVTVSS
notes: not shown: C-terminal His-tag
B10: LG2 (VHH)
VHH: QVQLVESGGGLVQPGGSLRLSCAASGTIFSINAMGWYRQAPGKQRELVAIVTFGGSTNYADSVKGRFTISRDNAKNTVYLQMNSLKPEDTAVYYCSARNVQSPVQYHLAVWGQGTLVTVSS
notes: not shown: C-terminal His-tag
B11: LG22 (VHH)
VHH: EVQLVESGGGLVQPGGSLRLSCAASGFTLDYYAIGWFRQAPGKEREGVSCIINSDGSTYYADSVKGRFTISRDNAKNTVYLQMNSLKPEDTAVYYCATDRYSDCRGPYDYWGQGTQVTVSS
notes: not shown: C-terminal His-tag
B12: hLG9 (VHH)
VHH: EVQLLESGGGLVQPGGSLRLSCAASGSTIDDYPMSWFRQAPGKGREGVAAIDDSDESTYYADSVKGRFTISRDNSKNTLYLQMNSLRAEDTAVYYCARGAIFMIDGVDVFLTYYYDSWGQGTLVTVSS
notes: also called LG9H; not shown: C-terminal His-tag
B13: LG99 (VHH)
VHH: B12 VHH with I101L, Y115F, D116E, S117F
notes: not shown: C-terminal His-tag
B14: LG9 (VHH)
VHH: EVQLVESGGGLVQPGGSLRLSCAASGSTIDDYPIGWFRQAPGKEREGVSCIDDSDESTYYADSVKGRFTISRDNAKNTVYLQMNSLKPEDTAVYYCARGAIFMIDGVDVFLTYYYDSWGQGTQVTVSS
notes: not shown: C-terminal His-tag
B15: LG19 (VHH)
VHH: QVQLVESGGGLVQPGGSLRLSCAASGFTLDYYAIGWFRQAPGKEREGVSCISSSDGSTYYADSVKGRFTISRDNAKNTVYLQMNSLKPEDTAVYYCAADRRGSCRQYDYWGQGTQVTVSS
notes: not shown: C-terminal His-tag
B16: A09-08 (VHH)
VHH: QVQLVESGGGLVQAGGSLRLSCAASGYGVNSYALGWFRQAPGKEREFVAAISRSGGNINYADSAKGRFTISRDNFKNTTYLQMSSLKPEDTAVYYCAAHYLLLPSYISTSTNMYNYWGQGTQVTVSS
notes: not shown: C-terminal His-tag
B17: A09-61 (VHH)
VHH: B16 VHH with T109F, S110A, T111S, N112K
notes: not shown: C-terminal His-tag
B18: A09-31 (VHH)
VHH: B16 VHH with S108A, S110A, T111I, N112K
notes: not shown: C-terminal His-tag
B19: A09-006 (VHH)
VHH: B16 VHH with Y27I, G28R, V29F, N30F, S31G, Y32S
notes: also called A09-06; not shown: C-terminal His-tag
B20: A09-10 (VHH)
VHH: QVQLVESGGGLVQAGGSLRLSCAASGGGRTFSNYALGWFRQAPGKEREFVAAISRSGGNINYADSAKGRFTISRDNFKNTTYLQMSSLKPEDTAVYYCAAHYLLLPSYISTSTNMYNYWGQGTQVTVSS
notes: not shown: C-terminal His-tag
B21: hA09-10 (VHH)
VHH: B20 VHH with Q1E, A14P, A66V, F77A, T81V, K89R, P90A
notes: also called humanized A09-10; not shown: C-terminal His-tag
B22: PL14 (VHH)
VHH: EVQLVESGGGLVQAGGSLRLSCAASGSTSGIYDMGWYRQAPGKLREVVGIITSGGTTNYADFAKGRFTISRDNAKNMMYLQMNSLKPEDTAVYYCNIRTRLIIWGQGTQVTVSS
notes: not shown: C-terminal His-tag
B23: PL18 (VHH)
VHH: EVQLVESGGGLVQAGGSLRLSCAASGRTFNIYSMAWFRQAPGKEREFVVRINWNRGTTYYADSVKGRFTISRDNAKNTVYLQMSNLKPEDTAVYYCAARGSPSTIGAFTSASHYDYWGQGTQVTVSS
notes: not shown: C-terminal His-tag
B24: PL11 (VHH)
VHH: QVQLVESGGGLVQAGGSLRLSCAASGRTFNTYDMGWFRRAPGKEREFVAGIDWYTTNTYYADSVKGRFTISRDNAKNTVYLQMRSLKPEDTAVYYCAAGIRSTATITGQADYWGQGAQVTVSS
notes: not shown: C-terminal His-tag
B25: PL17 (VHH)
VHH: B24 VHH with A40T, I51M, Y54N, T56I, T105I, A117T
notes: not shown: C-terminal His-tag
B26: PL2 (VHH)
VHH: QVQLVESGGGLVQAGGSLRLSCAVSGLTLSRYTMAWFRQAPGKEREFVAAIIRNSVSTFHEESVKGRFTISRDNVKNMMYLQMNTLKPEDTAVYYCATNVGPTGGFSLQSVQRYDAWGQGTQVTVSS
notes: not shown: C-terminal His-tag
B27: PL16 (VHH)
VHH: QVQLVESGGGLVQAGGSLRLSCAFSGGTFLTYSLGWFRQGPGKEREFVASINWSGYMTSYVDSVKGRFTISRDNAKNTVYLQMNSLKPEDTALYYCAAARTAIAAKRSSEFDYWGQGAQVTVSS
notes: not shown: C-terminal His-tag

Each binder was assayed against T2, Human serum albumin (human, UniProt P02768 25-609) (assay: BLI (Octet) as in Example 1, His-tagged VHH, HSA).
T2 construct: also called HSA

Kd | koff | kon | Binder
0.946 nM | 0.000765 s⁻¹ | 809000 M⁻¹ s⁻¹ | B1

The binders below were run against Human CD33 (human, UniProt P20138 18-259) (assay: BLI (Octet) as in Example 1, His-tagged VHH, human CD33).
Human CD33, sequence (P20138 18-259 limits assumed): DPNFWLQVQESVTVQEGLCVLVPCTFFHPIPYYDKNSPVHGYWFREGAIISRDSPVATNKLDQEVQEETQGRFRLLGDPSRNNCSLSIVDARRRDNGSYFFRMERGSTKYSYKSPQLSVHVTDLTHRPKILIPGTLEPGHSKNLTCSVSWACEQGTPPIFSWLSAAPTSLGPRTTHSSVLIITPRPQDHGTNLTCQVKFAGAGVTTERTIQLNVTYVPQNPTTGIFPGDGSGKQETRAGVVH

Kd | koff | kon | Binder
1.01 nM | 0.00081 s⁻¹ | 800000 M⁻¹ s⁻¹ | B2
0.753 nM | 0.0006 s⁻¹ | 800000 M⁻¹ s⁻¹ | B3
0.511 nM | 0.0007 s⁻¹ | 1.1e+06 M⁻¹ s⁻¹ | B4
0.136 nM | 0.000109 s⁻¹ | 800000 M⁻¹ s⁻¹ | B5
0.995 nM | 0.0009 s⁻¹ | 900000 M⁻¹ s⁻¹ | B6
0.409 nM | 0.0005 s⁻¹ | 1e+06 M⁻¹ s⁻¹ | B7

What follows are binders tested against T1, human LAG3 (assay: BLI (Octet) as in Examples 1-4, His-tagged VHH, human LAG3).

Kd | koff | kon | Binder
19 nM | 0.000522 s⁻¹ | 27500 M⁻¹ s⁻¹ | B8
2.98 nM | 9.82e-05 s⁻¹ | 33000 M⁻¹ s⁻¹ | B9
630 nM | 0.021 s⁻¹ | 33300 M⁻¹ s⁻¹ | B10
0.267 nM | 1.14e-05 s⁻¹ | 42700 M⁻¹ s⁻¹ | B11
2.71 nM | 0.000298 s⁻¹ | 110000 M⁻¹ s⁻¹ | B12
0.0792 nM | 2.91e-05 s⁻¹ | 367000 M⁻¹ s⁻¹ | B13
1.77 nM | 0.00011 s⁻¹ | 62100 M⁻¹ s⁻¹ | B14
0.114 nM | 1.09e-05 s⁻¹ | 87000 M⁻¹ s⁻¹ | B15

What follows are binders tested against T3, human CD47 (R & D systems) (human, UniProt Q08722 19-139) (assay: BLI (Octet), His-tagged VHH on anti-penta-His tips, soluble human CD47).
T3 construct: The Octet analyte was bought (R&D Systems); also called Human CD47 antigen; hCD47

Kd | koff | kon | Binder
0.063 nM | 2.1e-06 s⁻¹ | 33300 M⁻¹ s⁻¹ | B16
1.77 nM | 0.00011 s⁻¹ | 62100 M⁻¹ s⁻¹ | B17
19 nM | 0.000522 s⁻¹ | 27500 M⁻¹ s⁻¹ | B18
0.0114 nM | 1.09e-06 s⁻¹ | 87000 M⁻¹ s⁻¹ | B19
0.0267 nM | 1.14e-06 s⁻¹ | 42700 M⁻¹ s⁻¹ | B20
0.0276 nM | 1.1e-06 s⁻¹ | 39800 M⁻¹ s⁻¹ | B21

What follows are binders tested against T4, Human PD-L1 antigen (human, UniProt Q9NZQ7 19-238) (assay: BLI (Octet), His-tagged VHH on anti-penta-His tips, soluble human PD-L1).
T4 construct: also called PD-L1 protein
T4 sequence (Q9NZQ7 19-238 limits assumed): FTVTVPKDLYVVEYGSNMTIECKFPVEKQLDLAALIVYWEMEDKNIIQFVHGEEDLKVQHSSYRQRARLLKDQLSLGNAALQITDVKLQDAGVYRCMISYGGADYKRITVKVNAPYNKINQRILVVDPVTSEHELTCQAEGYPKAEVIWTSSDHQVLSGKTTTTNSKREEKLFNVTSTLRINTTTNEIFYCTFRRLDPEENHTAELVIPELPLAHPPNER

Kd | koff | kon | Binder
0.0177 nM | 1.1e-06 s⁻¹ | 62100 M⁻¹ s⁻¹ | B22
2.67 nM | 0.000114 s⁻¹ | 42700 M⁻¹ s⁻¹ | B23
19 nM | 0.000522 s⁻¹ | 27500 M⁻¹ s⁻¹ | B24
0.0114 nM | 1.09e-06 s⁻¹ | 87000 M⁻¹ s⁻¹ | B25
630 nM | 0.021 s⁻¹ | 33300 M⁻¹ s⁻¹ | B26
0.0271 nM | 2.98e-06 s⁻¹ | 110000 M⁻¹ s⁻¹ | B27
